Measurements reported in patent US20250281611A1 (BIOSCEPTRE AUST, published 2025).
Blank lines part the entries; values can stand above or below the binder they belong to.

Columns and labels:
[1] = target: T1, BCMA (UniProt Q02223 1-184, limits assumed); test: flow cytometry, RPMI 8226 cells
T1 construct: whole, on cells
T1 sequence (looked up): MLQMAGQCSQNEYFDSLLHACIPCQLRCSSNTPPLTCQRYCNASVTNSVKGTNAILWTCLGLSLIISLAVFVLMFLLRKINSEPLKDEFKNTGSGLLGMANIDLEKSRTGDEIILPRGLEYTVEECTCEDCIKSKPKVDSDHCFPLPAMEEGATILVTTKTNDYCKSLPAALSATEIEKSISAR

[2] = target: T2, EGFR (UniProt P00533 25-1210); test: flow cytometry, MDA-MB 231 and PC-3 cells
T2 construct: whole, on cells

binding result [1]: binds
B1: BCMA bridging molecule (E200 + BCMA binder, clone CA8 J9M0, B039) (Fab, V domains shown)
VH: QVQLVQSGAEVKKPGSSVKVSCKGSGYTFTNYWMHWVRQAPGQGLEWIGATYRGHSDTYYNQKFKGRATLTADTSTSTAYMELSSLRSEDTAVYYCTRGAIYDGYDVLDNWGQGTLVTVSS
VL: DIQMTQSPSSLSASVGDRVTITCSASQDISNYLNWYQQKPGKAPKLLIYYTSNLHSGVPSRFSGSGSGTDFTLTISSLQPEDFATYYCQQYRKLPWTFGQGTKLEIKR

binding result [2]: binds
B2: EGFR bridging molecule (E200 + EGFR binder, Matuzumab, B035) (Fab, V domains shown)
VH: QVQLVQSGAEVKKPGASVKVSCKASGYTFTSHWMHWVRQAPGQGLEWIGEFNPSNGRTNYNEKFKSKATMTVDTSTNTAYMELSSLRSEDTAVYYCASRDYDYDGRYFDYWGQGTLVTVSS
VL: DIQMTQSPSSLSASVGDRVTITCSASSSVTYMYWYQQKPGKAPKLLIYDTSNLASGVPSRFSGSGSGTDYTFTISSLQPEDIATYYCQQWSSHIFTFGQGTKVEIKR
